Substitutions are numbered along the chain they refer to.
Columns and labels:
Test in all cases: ELISA; sandwich ELISA: 10 ug each of rmMASP-3-PA and rmMASP-3-ALFA mixed, dialysed against TBS/10 mM EDTA 24 h at 4°C, then against TBS/5 mM CaCl2 24 h at 4°C; 0.14 uM of each, serially diluted in 20% Blocking One in TBS/Ca; captured on anti-PA tag antibody, 30 min room temperature; detected with HRP-conjugated anti-ALFA nanobody
Details in all cases: both partners purified
[1] = target: T1, E49A mutant recombinant mouse MASP-3 fused with PA-tag (mouse, UniProt P98064-2 25-733, E49A)
T1 construct: Made from the pCAG-Bsd PA tag-C/WT rmMASP-3 plasmid by site-directed mutagenesis; also called E49A rmMASP-3-PA; mutant rmMASP-3-PA; source: CHO cells, transfected, culture supernatant, purified (anti-PA tag antibody beads); not shown: PA tag (human podoplanin dodecapeptide), C-terminal, kept
T1 sequence (looked up): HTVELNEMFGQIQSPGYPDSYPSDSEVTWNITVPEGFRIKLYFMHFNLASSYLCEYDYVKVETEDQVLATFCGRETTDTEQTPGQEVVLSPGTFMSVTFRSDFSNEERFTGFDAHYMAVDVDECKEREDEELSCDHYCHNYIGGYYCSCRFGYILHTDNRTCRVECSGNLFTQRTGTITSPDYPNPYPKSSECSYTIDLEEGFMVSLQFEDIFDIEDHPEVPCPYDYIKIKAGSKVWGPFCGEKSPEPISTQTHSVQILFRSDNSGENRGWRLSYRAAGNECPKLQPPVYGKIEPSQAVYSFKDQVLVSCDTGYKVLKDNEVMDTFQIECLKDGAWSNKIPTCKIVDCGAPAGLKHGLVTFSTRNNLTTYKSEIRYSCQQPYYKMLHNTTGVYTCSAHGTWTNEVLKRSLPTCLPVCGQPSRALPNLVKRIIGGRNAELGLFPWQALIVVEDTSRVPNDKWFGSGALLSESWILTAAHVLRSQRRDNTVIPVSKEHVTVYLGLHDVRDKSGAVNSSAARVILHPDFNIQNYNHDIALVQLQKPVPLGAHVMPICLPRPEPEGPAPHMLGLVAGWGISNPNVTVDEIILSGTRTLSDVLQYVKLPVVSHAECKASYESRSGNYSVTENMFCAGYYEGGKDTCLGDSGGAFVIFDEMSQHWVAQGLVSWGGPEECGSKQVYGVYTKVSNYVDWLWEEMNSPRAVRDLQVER

[2] = target: T2, wild-type recombinant mouse MASP-3 fused with PA-tag (WT rmMASP-3-PA) (mouse, UniProt P98064-2 25-733)
T2 construct: Secreted from CHO cells, purified as a proenzyme of about 110 kDa; in the circulation partly cleaved into H-chain and L-chain (active form); also called WT-PA; source: CHO cells, transfected, culture supernatant, purified (anti-PA tag antibody beads); not shown: PA tag (human podoplanin dodecapeptide), C-terminal, kept
T2 sequence (looked up): T1 sequence (looked up) with A49E

[3] = target: T3, H218A mutant recombinant mouse MASP-3 fused with PA-tag (mouse, UniProt P98064-2 25-733, H218A)
T3 construct: Made from the pCAG-Bsd PA tag-C/WT rmMASP-3 plasmid by site-directed mutagenesis; also called H218A rmMASP-3-PA; mutant rmMASP-3-PA; source: CHO cells, transfected, culture supernatant, purified (anti-PA tag antibody beads); not shown: PA tag (human podoplanin dodecapeptide), C-terminal, kept
T3 sequence (looked up): T1 sequence (looked up) with A49E, H218A

[4] = target: T4, Y225A mutant recombinant mouse MASP-3 fused with PA-tag (mouse, UniProt P98064-2 25-733, Y225A)
T4 construct: Made from the pCAG-Bsd PA tag-C/WT rmMASP-3 plasmid by site-directed mutagenesis; also called Y225A rmMASP-3-PA; mutant rmMASP-3-PA; source: CHO cells, transfected, culture supernatant, purified (anti-PA tag antibody beads); not shown: PA tag (human podoplanin dodecapeptide), C-terminal, kept
T4 sequence (looked up): T1 sequence (looked up) with A49E, Y225A

Measured: binding result

B1: wild-type recombinant mouse MASP-3 with ALFA tag (WT rmMASP-3-ALFA) (enzyme, UniProt P98064-2 25-733, looked up)
chain: T1 sequence (looked up) with A49E
notes: The fragment was put into the pCAG-Bsd PA tag-C vector; also called WT-ALFA; source: CHO cells, transfected, culture supernatant, purified (ALFA Selector ST); not shown: ALFA tag, C-terminal, kept
binds: [1] | [2] | [3] | [4]

Reference: publication PMC9425028, “The complex formation of MASP-3 with pattern recognition molecules of the lectin complement pathway retains MASP-3 in the circulation” (Frontiers in Immunology, 2022)
